Data published in PMC3386239.

Target: Skp1 (mouse, endogenous in RAW264.7 cells) (mouse (endogenous in RAW264.7)) (UniProt Q9WTX5)
Sequence of UniProt Q9WTX5 (Q9WTX5 whole entry): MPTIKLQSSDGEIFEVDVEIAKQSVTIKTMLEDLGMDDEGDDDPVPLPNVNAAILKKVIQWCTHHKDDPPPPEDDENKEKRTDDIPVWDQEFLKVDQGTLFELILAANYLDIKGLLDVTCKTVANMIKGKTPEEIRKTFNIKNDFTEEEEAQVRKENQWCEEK

| Substance | NFκB-driven luciferase in RAW264.7 cells infected with ΔgogB complemented with GogBΔ264–352 (F-box motif deleted), fold of wild type Salmonella (fold of wild type) | NFκB-driven luciferase in RAW264.7 cells infected with ΔgogB complemented with GogB-NT (C-terminal domain deleted), fold of wild type Salmonella (fold of wild type) |
| --- | --- | --- |
| GogB Δ264–352 (in-frame deletion of the F-box-like domain), HA-tagged, delivered by the T3SS (natural protein) | 4 | – |
| GogB-NT (amino acids 1-253, N-terminal LRR domain), HA-tagged, delivered by the T3SS (domain or fragment) | – | 4 |
